Reference: publication PMC9741107, “The L-Rhamnose Biosynthetic Pathway in Trichomonas vaginalis: Identification and Characterization of UDP-D-Glucose 4,6-dehydratase” (International Journal of Molecular Sciences, 2022)

What was measured:
[1] = molecular target: the molecule itself; test: SEC; size-exclusion chromatography of the purified protein on a TSK-gel 3000 column, as described in ref. 23; molecular weight calculated from the elution time
[2] = substrate: O=c1ccn([C@@H]2O[C@H](CO[P@@](=O)(O)O[P@@](=O)(O)O[C@H]3O[C@H](CO)[C@@H](O)[C@H](O)[C@H]3O)[C@@H](O)[C@H]2O)c(=O)[nH]1; test: anion-exchange HPLC of substrate consumption, Michaelis-Menten fit; type: biochemical, Trichomonas vaginalis; conditions: 50 mM Tris/HCl, 150 mM NaCl, pH 7.0, 25 °C, no added NAD(P)+ or bivalent cations needed
[3] = substrate: Cc1cn([C@H]2C[C@H](O)[C@@H](COP(=O)(O)OP(=O)(O)O[C@H]3O[C@H](CO)[C@@H](O)[C@H](O)[C@H]3O)O2)c(=O)[nH]c1=O; test: as above; type: biochemical, Trichomonas vaginalis; conditions: 50 mM Tris/HCl, 150 mM NaCl, pH 7.0, 25 °C, no added NAD(P)+ or bivalent cations needed

B1: UDP-D-glucose 4,6-dehydratase from Trichomonas vaginalis (TvUGD, TVAG_414560) (enzyme, Trichomonas vaginalis (strain G3), UniProt A2GEF2 1-348, looked up)
chain: MSEDYQPHVILLTGGAGFIGSHVCNHLVLKYPDVKIICLDVMDYCANLRNLEEIMNKPNFLFIKGSINNVELVSYIMKTHAVDTVMHFAAQSHVDRSFGNSLEFTHTNILGTHVLLECAKQNNIKRFIHVSTDEVYGEVLSGCAEEEKSILCPTNPYACSKAGAEFMCQAYIRSFNMPIIITRGNNVFGPKQFPEKVIPKFTLLLKAGHKCCIHGDGSALRNFLHTSDVVQAFDTILHKGKLHQIYNIGTDFEISVLEMTKKLIKVLNMPGKPEDWIEFVPDRAFNDSRYMINSSKLIALGWHANTDFDTLLKETVQWYLDHMDYWKDRDINTYLSPHPIAYAPKTAE
notes: calculated monomer mass 39 kDa; Residues of the vector may remain after protease cleavage; also called TvGD; UDP-D-Glc 4,6-dehydratase; source: E. coli BL21, GST-fusion from pGEX-6P1, purified on GSH-sepharose 4B, GST removed by precision protease cleavage
[1]
  stoichiometry N: 2
[2]
  Km: 21.3 ± 3.4 µM
  kcat: 0.39 ± 0.01 s⁻¹
[3]
  Km: 362.8 ± 73.4 µM
  kcat: 0.36 ± 0.03 s⁻¹
